Measured values: patent publication US20220169688A1 (Dana-Farber, published 2022)
Bridge positions count the residues as written; N and C are the ends. Square brackets hold non-standard residues; d marks the D form. Primed or numbered codes have the meaning given here. Ends that are not written are not given here. R8 = C=CCCCCCC[C@@](C)(N)C(=O)O; S5 = C=CCCC[C@](C)(N)C(=O)O; FITC′ = not defined here; Nle = CCCC[C@H](N)C(=O)O

T1: recombinant human E1 activating enzyme UBA1 (human, UniProt P22314 1-1058, limits assumed)
T1 construct: also called UBE1
T1 sequence: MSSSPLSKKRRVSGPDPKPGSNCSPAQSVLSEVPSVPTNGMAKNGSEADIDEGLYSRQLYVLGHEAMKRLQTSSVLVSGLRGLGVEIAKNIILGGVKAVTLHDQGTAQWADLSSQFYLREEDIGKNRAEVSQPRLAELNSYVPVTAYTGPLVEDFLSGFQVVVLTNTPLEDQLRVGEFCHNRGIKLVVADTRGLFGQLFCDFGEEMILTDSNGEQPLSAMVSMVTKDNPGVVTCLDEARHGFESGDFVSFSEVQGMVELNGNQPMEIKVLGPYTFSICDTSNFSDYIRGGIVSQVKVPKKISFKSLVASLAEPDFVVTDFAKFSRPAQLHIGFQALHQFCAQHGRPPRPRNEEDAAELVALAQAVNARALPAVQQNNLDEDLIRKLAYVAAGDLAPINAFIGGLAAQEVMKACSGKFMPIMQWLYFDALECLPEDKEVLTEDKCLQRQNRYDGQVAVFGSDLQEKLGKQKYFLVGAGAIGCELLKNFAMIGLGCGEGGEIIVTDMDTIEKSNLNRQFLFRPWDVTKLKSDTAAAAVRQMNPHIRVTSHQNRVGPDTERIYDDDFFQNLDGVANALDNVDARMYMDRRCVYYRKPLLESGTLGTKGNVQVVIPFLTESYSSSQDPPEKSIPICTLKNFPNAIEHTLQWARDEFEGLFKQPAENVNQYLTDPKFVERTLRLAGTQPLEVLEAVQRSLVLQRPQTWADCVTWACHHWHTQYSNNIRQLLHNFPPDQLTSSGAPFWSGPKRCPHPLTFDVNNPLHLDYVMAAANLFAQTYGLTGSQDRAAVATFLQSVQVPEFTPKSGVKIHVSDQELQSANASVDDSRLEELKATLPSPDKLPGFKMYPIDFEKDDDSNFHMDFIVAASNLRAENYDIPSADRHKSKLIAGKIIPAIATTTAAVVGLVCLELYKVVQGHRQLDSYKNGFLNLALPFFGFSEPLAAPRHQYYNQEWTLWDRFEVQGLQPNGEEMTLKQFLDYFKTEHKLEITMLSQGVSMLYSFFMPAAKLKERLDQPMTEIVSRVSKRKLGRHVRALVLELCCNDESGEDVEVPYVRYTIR

T2: His-tagged UBA1 captured on Ni-NTA agarose beads (human, UniProt P22314 1-1058, limits assumed)
T2 construct: also called His-UBA1; His-UBE1; not shown: His tag
T2 sequence: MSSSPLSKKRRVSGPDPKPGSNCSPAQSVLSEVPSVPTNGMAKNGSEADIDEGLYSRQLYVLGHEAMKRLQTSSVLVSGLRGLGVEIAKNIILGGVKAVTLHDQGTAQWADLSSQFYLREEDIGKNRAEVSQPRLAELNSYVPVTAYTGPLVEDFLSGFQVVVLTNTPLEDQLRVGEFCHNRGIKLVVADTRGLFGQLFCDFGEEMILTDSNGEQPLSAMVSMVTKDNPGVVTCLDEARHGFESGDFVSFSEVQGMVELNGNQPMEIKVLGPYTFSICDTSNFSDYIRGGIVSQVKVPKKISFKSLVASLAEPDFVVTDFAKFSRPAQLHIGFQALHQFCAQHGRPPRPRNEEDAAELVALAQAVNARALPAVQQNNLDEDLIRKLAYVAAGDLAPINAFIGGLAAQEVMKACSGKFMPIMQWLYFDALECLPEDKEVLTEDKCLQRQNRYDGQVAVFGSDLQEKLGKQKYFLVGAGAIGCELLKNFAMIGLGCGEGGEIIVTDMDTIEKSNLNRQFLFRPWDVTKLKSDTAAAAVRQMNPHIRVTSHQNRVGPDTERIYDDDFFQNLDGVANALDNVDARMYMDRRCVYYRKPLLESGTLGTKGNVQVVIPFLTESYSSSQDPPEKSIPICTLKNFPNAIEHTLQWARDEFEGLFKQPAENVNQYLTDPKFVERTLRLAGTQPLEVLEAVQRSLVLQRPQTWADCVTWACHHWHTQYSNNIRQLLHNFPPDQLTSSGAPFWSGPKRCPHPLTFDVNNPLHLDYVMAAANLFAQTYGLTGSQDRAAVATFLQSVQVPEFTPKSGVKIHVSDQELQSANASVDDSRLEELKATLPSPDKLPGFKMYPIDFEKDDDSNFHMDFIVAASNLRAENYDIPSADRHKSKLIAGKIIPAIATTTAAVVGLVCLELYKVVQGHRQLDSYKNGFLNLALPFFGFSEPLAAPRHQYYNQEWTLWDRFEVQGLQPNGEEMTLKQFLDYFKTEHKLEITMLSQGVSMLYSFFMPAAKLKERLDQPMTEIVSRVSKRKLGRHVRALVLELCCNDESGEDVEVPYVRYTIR

T3: native UBA1 in HeLa cell lysate (human, UniProt P22314 2-1058, limits assumed)
T3 construct: Endogenous protein in HeLa cell lysate or S100 fraction; also called UBE1
T3 sequence: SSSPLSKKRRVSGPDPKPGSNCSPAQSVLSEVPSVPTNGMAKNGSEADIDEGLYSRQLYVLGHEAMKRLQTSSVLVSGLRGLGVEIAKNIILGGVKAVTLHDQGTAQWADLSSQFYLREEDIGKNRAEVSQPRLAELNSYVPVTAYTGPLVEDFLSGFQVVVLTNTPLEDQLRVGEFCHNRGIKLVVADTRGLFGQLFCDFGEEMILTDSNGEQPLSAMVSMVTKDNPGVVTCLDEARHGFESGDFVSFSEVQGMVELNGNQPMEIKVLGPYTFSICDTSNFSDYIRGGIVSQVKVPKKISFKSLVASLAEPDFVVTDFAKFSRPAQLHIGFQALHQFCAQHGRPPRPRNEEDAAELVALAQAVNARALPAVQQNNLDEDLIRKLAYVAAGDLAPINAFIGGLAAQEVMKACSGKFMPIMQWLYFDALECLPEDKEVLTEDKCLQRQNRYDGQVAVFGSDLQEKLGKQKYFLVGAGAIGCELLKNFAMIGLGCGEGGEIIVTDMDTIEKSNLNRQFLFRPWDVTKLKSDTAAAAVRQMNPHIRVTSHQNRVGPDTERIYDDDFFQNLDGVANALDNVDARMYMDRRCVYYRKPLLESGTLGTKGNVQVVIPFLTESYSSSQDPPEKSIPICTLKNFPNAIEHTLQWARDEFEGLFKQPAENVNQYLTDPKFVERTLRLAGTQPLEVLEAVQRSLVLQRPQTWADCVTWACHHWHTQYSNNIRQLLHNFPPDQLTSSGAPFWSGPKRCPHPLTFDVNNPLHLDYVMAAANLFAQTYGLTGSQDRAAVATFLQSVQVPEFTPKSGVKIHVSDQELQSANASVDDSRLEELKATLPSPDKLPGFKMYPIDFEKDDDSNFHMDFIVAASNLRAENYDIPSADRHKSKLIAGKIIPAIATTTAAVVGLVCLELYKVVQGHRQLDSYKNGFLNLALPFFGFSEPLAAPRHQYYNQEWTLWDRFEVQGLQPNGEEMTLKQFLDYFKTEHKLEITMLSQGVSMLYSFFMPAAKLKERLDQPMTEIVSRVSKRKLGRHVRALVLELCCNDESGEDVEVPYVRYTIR


Key:
[1] = molecular target: T1, recombinant human E1 activating enzyme …; experiment: fluorescence polarization, without and with ubiquitin and ATP
Source text: In vitro Binding Assays: To assess the binding and affinity of ligands to acceptor proteins, a fluorescence polarization assay (FPA) can be used, for example. The FPA technique measures the molecular orientation and mobility using polarized light and fluorescent tracer.

[2] = molecular target: T2, His-tagged UBA1 captured on Ni-NTA …; experiment: fluorescence microscopy of Ni-NTA agarose beads carrying His-UBA1; 10 µM FITC-labeled peptide
Method: Fluorescence Microscopy: His-tagged UBA1 (25 μg) was incubated with Ni-NTA agarose beads (100 μl) (Invitrogen™ R90110) in PBS for 30 min. […] Beads were plated in 386-well plate format (10 μl/well) (Corning 384-well High Content Imaging Glass Bottom Microplate) and imaged with an Olympus wide-field epifluorescence microscope, a 63× LCPlanFL NA 0.7 objective, and a CoolSNAP DYNO camera.

His-tagged p53 = molecular target: T4, His-tagged p53 (UniProt P04637 1-393, limits assumed); experiment: fluorescence microscopy of Ni-NTA agarose beads carrying His-p53, incubated with FITC-labeled peptide
T4 construct: Control protein captured on Ni-NTA agarose beads; also called His-p53; unrelated protein control; not shown: His tag

[3] = molecular target: T1, recombinant human E1 activating enzyme …; experiment: streptavidin-biotin pull-down, silver-stained protein gel
Method: (§1) 30 μL of pre-equilibrated streptavidin agarose beads were then added and incubated for an additional 1.5 hours at 4° C. The beads were pelleted by centrifugation and washed three times with NP-40 buffer (20 mM HEPES, pH 7.4, 50 mM NaCl, 5 mM DTT, 0.5% [v/v] NP-40) before eluting the protein sample from the beads by heating at 70° C. for 10 min in 3×SDS loading buffer. Samples were subjected to electrophoresis and silver staining (Pierce 24612). […] 30 μL of pre-equilibrated streptavidin agarose beads (ThermoFisher 20357) were then added and incubated for an additional 1.5 hours at 4° C. The beads were pelleted by centrifugation and washed three times with NP-40 buffer (20 mM HEPES, pH 7.4, 50 mM NaCl, 5 mM DTT, 0.5% [v/v] NP-40) before eluting the protein sample from the beads by heating at 70° C. for 10 min in 3×SDS loading buffer. Proteins were separated by SDS-PAGE gel electrophoresis and detected by western blot against UBE1 (Abcam ab34711). […] Conjugation of ubiquitin to E2 by E1 is monitored by conversion of free E2 (17 kDa) to E2˜ubiquitin conjugate (26 kDa). Quantitation of percent inhibition was calculated from densitometry of silver stain images.

[4] = molecular target: T3, native UBA1 in HeLa cell lysate; experiment: streptavidin-biotin pull-down from HeLa cell lysate, western blot
Method: as §1

T4 sequence (P04637 whole entry): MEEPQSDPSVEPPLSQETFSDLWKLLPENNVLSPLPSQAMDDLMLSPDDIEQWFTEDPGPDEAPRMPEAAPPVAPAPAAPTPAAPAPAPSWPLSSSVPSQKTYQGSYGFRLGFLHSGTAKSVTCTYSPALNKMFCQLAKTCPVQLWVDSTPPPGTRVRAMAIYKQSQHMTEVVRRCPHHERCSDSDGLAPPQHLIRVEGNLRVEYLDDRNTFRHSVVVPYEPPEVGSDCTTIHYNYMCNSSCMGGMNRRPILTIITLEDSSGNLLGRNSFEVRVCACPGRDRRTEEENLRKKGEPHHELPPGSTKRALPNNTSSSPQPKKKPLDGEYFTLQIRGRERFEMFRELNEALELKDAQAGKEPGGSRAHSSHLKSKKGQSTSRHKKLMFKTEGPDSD

| binding result [1] | binding result [2] | binding result (His-tagged p53) | binding result [3] | binding result [4] | Binder |
| --- | --- | --- | --- | --- | --- |
| binds | binds | no binding (tested: 10 µM) |  |  | [Nle]STP[R8]RRRL[Nle]R[S5]FKRLQ-{FITC′} (staple 5-12, also called FITC-labeled SAH-UBE2A-11; FITC-labeled peptide) [FITC-SAH-UBE2A (FITC conjugated to SEQ ID NO: 132)] |
|  |  |  | binds | binds | Ac-[Nle]STP[R8]RRRL[Nle]R[S5]FKRLQ-biotin (staple 5-12, also called biotinylated peptide; not shown: C-terminal biotin handle) [C-terminally biotinylated SAH-UBE2A] |
